# Source: the DeepSol protein solubility set
# Experiment: soluble on expression in E. coli; label from the status in PepcDB or PDB records
row,Sequence,soluble on expression in E. coli
1,MHEPMKTLKNIHAEIRICQKFPKSTVQKRFSEFEELIKAASKNARNWKPISSVELFQGDSSLNELFEKLVIGTCELRDGELFENVNDLTINPSNIHVYKLHKDGPLSQNIGDDDGDESIIGSQLWQLPCVEFDSIWENLIYDSNLKNEVMSYVAALARLSEKHVNTKIINVNRLILLTGPPGTGKTSLCKGLAQHLSIRMNDKYSKSVMLEINSHSLFSKWFSESGKLVQKMFDQIDELAEDEKCMVFVLIDEVESLGMCRESSSSRSEPSDAIRAVNALLTQIDRIRRRDNVLILCTSNLESTLDKALVDRADIVKNVGQPSDFARYSMLKSSIMELARIGVVIDNEVHTDYWPQDICDTKAPRNEFTEILFKIAQEARGLSGRAISMLPTLVYSKSPEETITLPNCMNLFLEAVKERLSRNN,not soluble
2,MHERHRFWQRALRLLSLGVPREASSALFGHDHSLQQETWLRSLQKEKQHIIDWHDRLTDIPFVIIDMETTGFSPEQGDEILAMAAAKTVGGVVTDAYMTLVKPEKPIPEHISALTGIEAKDVVFAPPLAEALRTFVPFIAAGVLIGYHIGHDLAFLRHALWRHYRQKWSGRFVDLQPMMTLIGHSCPTFDDALACYGICCPRRHTADGDVEAMAKLWAILLDEFRQRGIDTLHDLYAALSRC,not soluble
3,MHGKDPFSDFREFINTMESRVQELGKAYGVEHLAGPQGFAVRYLFENQDKEIFIKDIEKKLSISKSVASNLVKRMEKNGFVELVTSDKDKRYKYVHLTDLGKKKAQDVGHFREAIHGQLLDGISKEDAETAFRVFHQIRKNLEKNKELEHHHHHH,soluble
4,MHHHHHHSSGRENLYFQGSVFGVPLTVNVQRTGQPLPQSIQQAMRYLRNHCLDQVGLFRKSGVKSRIQALRQMNEGAIDCVNYEGQSAYDVADMLKQYFRDLPEPLMTNKLSETFLQIYQYVPKDQRLQAIKAAIMLLPDENREVLQTLLYFLSDVTAAVKENQMTPTNLAVCLAPSLFHLNTLKRENSSPRVMQRKQSLGKPDQKDLNENLAATQGLAHMIAECKKL,soluble
5,MHHHHHHSSGVDLGTENLYFQSMENFNNFYILTSKELGRGKFAVVRQCISKSTGQEYAAKFLKKRRRGQDCRAEILHEIAVLELAKSCPRVINLHEVYENTSEIILILEYAAGGEIFSLCLPELAEMVSENDVIRLIKQILEGVYYLHQNNIVHLDLKPQNILLSSIYPLGDIKIVDFGMSRKIGHACELREIMGTPEYLAPEILNYDPITTATDMWNIGIIAYMLLTHTSPFVGEDNQETYLNISQVNVDYSEETFSSVSQLATDFIQSLLVKNPEKRPTAEICLSHSWLQQWDFENLFHPEETSSSSQTQDHSVRSSEDKTSKSS,soluble
6,MHHHHHHSSGVDLGTENLYFQSMRTGYRVFSANSTAACTELAKRITERLGAELGKSVVYQETNGETRVEIKESVRGQDIFIIQTIPRDVNTAVMELLIMAYALKTACARNIIGVIPYFPYSKQSKMRKRGSIVCKLLASMLAKAGLTHIITMDLHQKEIQGFFSFPVDNLRASPFLLQYIQEEIPNYRNAVIVAKSPDAAKRAQSYAERLRLGLAVIHGEAQCTELDMDDGRHSPPMVKNATVHPGLELPLMMAKEKPPITVVGDVGGRIAIIVDDIIDDVESFVAAAEILKERGAYKIYVMATHGILSAEAPRLIEESSVDEVVVTNTVPHEVQKLQCPKIKTVDISLILSEAIRRIHNGESMAYLFRN,soluble
7,MHHHHHHSSGVDLGTENLYFQSMSRVLQAEELHEKALDPFLLQAEFFEIPMNFVDPKEYDIPGLVRKNRYKTILPNPHSRVCLTSPDPDDPLSSYINANYIRGYGGEEKVYIATQGPIVSTVADFWRMVWQEHTPIIVMITNIEEMNEKCTEYWPEEQVAYDGVEITVQKVIHTEDYRLRLISLKSGTEERGLKHYWFTSWPDQKTPDRAPPLLHLVREVEEAAQQEGPHCAPIIVHCSAGIGRTGCFIATSICCQQLRQEGVVDILKTTCQLRQDRGGMIQTCEQYQFVHHVMSLYEKQLSHQS,soluble
8,MHHHHHHSSGVDLGTENLYFQSMTTSLEALPTGTVLTDKSGRQWKLKSFQTRDNQGILYEAAPTSTLTCDSGPQKQKFSLKLDAKDGRLFNEQNFFQRAAKPLQVNKWKKLYSTPLLAIPTCMGFGVHQDKYRFLVLPSLGRSLQSALDVSPKHVLSERSVLQVACRLLDALEFLHENEYVHGNVTAENIFVDPEDQSQVTLAGYGFAFRYCPSGKHVAYVEGSRSPHEGDLEFISMDLHKGCGPSRRSDLQSLGYCMLKWLYGFLPWTNCLPNTEDIMKQKQKFVDKPGPFVGPCGHWIRPSETLQKYLKVVMALTYEEKPPYAMLRNNLEALLQDLRVSPYDPIGLPMVP,soluble
